Experimental findings from patent US20080207488A1, “Method for Detecting Peptides Comprising a Cross-B Structure” (priority 2005, published 2008) are described below.

The target of data set [1] is T1, factor XII (Homo sapiens, UniProt P00748).
T1 construct: purchased Calbiochem, EMD Biosciences #233490
T1 sequence (P00748 20-615): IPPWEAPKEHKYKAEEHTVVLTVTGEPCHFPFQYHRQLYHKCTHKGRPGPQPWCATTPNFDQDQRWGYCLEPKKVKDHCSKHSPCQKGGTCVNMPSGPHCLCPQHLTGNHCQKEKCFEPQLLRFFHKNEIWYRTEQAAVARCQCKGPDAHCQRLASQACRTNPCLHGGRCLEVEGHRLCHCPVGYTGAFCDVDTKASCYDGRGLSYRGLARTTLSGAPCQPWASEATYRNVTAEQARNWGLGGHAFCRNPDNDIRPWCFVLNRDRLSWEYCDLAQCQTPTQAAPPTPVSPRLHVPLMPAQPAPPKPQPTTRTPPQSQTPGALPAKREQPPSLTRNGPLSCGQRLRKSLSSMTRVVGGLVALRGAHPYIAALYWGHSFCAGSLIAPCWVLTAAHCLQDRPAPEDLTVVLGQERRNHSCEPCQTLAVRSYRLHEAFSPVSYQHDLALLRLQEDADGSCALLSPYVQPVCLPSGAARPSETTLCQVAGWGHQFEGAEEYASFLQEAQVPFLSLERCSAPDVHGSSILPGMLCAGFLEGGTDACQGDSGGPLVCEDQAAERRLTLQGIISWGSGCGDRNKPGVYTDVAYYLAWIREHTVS
As to the kind of experiment: Chromogenic factor XII/prekallikrein activation assay (Chromozym-PK). To be noted: peptide aggregates and surfaces. It counts as biochemical. The procedure: (§1) Plasmin (Pls) activity was assayed as described^7. Peptides and proteins that were tested for their stimulatory ability were regularly used at 100 μg ml^−1. […] Chromogenic substrate S-2251 (Chromogenix, Instrumentation Laboratory SpA, Milano, Italy) was used to measure Pls activity. Conversion of zymogen factor XII (#233490, Calbiochem, EMD Biosciences, Inc., San Diego, Calif.) to proteolytically active factor XII (factor XIIa) was assayed by measurement of the conversion of chromogenic substrate Chromozym-PK (Roche Diagnostics, Almere, The Netherlands) by kallikrein. Chromozym-PK was used at a concentration of 0.3 mM. Factor XII, human plasma prekallikrein (#529583, Calbiochem) and human plasma cofactor high-molecular weight kininogen (#422686, Calbiochem) were used at concentrations of 1 μg ml^−1. […] Assays were performed using microtiter plates (Costar, Cambridge, Mass., USA). Peptides and proteins were tested for their ability to activate factor XII. 150 μg ml^−1 kaolin, an established activator of factor XII was used as positive control and solvent (H2O) as negative control. The conversion of Chromozym-PK was recorded kinetically at 37° C. for at least 60 minutes. Assays were done in duplicate. […] Alternatively, chromogenic substrate S-2222 (Chromogenix) was used to follow the activity of factor XII itself. With S-2222, activation of factor XII in plasma was measured, using 60% v/v plasma, diluted with substrate and H2O with or without potential cofactor. Furthermore, auto-activation of factor XII was measured by incubating 53 μg ml^−1 purified factor XII in 50 mM Tris-HCl buffer pH 7.5 with 1 mM EDTA and 0.001% v/v Triton-X100, with S-2222 and H2O with or without potential cofactor.
(§2) Formulated protein therapeutics were obtained from the local hospital pharmacy and were used as supplied by the manufacturers. […] Lyophilized therapeutics were dissolved according to the manufacturers recommendations. […] Other protein therapeutics were only kept at 4° C., and assayed for the presence of cross-β structure conformation at shown time points. Enhancement in fluorescence of ThT and Congo red was measured with all formulated protein therapeutics. For this purpose, proteins were diluted to the indicated concentrations. […] Zinc-insulin was diluted tenfold in the activation assay, GH was diluted to a final concentration of 500 μg ml^−1. Activation of factor XII and prekallikrein by the therapeutics was tested in the chromogenic factor XII assay (see above). […] After coating, plates were blocked with Blocking Reagent (Roche Diagnostics, Almere, The Netherlands).

Data set [2] deals with T2, LRP cl-IV binding to BSA-AGE (Bos taurus, UniProt P02769).
T2 construct: made in house; host or cells: LRP cl-IV: HEK293E/S culture supernatant, 50 times diluted; BSA-AGE: glycated in house and coated
As to the kind of experiment: ELISA, interference with LRP cl-IV binding to BSA-AGE. On the set-up: species or system human. As to conditions: concentration series, 50 times diluted LRP cl-IV medium. The procedure:
To test whether amyloid-like crossbeta structure binding compounds tPA, Congo red, Thioflavin T and Thioflavin S interfere with LRP cl-IV binding to BSA-AGE, concentration series of the potential inhibitory amyloid binding moieties were tested in the presence of 50 times diluted medium containing LRP cl-IV. The following inhibitors were used: tPA, Congo red, Thioflavin T (ThT) and Thioflavin S (ThS). As a control to tPA, K2P tPA, which lacks the amyloid-like misfolded protein binding finger domain, was included in the analyses. The influence of tPA and K2P tPA was tested in the presence of 10 mM ε-amino caproic acid to avoid binding of the kringle2 domain of tPA and K2P tPA to lysine- and arginine residues. Binding buffer and K2P tPA served as negative controls in these inhibition studies. The concentration series was measured in triplicate, the values averaged and standard deviations calculated. Background signals obtained with buffer-coated wells were subtracted. Signals obtained with binding of LRP cluster IV to BSA-AGE was set arbitrarily to a reference binding of 100% and signals obtained with the concentration series of misfolded protein binding moieties and K2P tPA were calculated based on this set reference.
In general terms: ELISA stands for enzyme-linked immunosorbent assay.

Data set [3] in a line: Thioflavin T fluorescence. It is filed as physicochemical. To be noted: 25 μg ml^−1. As for the experimental part:
Fluorescence of ThT-protein/peptide adducts was measured as follows. […] Fluorescence was measured at 485 nm upon excitation at 435 nm. Background signals from buffer, buffer with ThT and protein/peptide solution without ThT were subtracted from corresponding measurements with protein solution incubated with ThT. […] Fluorescence was measured in triplicate on a Hitachi F-4500 fluorescence spectrophotometer (Ltd., Tokyo, Japan).
as §2
To prepare structurally altered ovalbumin (OVA) with amyloid cross-β structure conformation, purified OVA (Sigma, A-7641, lot 071k7094) was heated to 85° C. One mg ml^−1 OVA in 67 mM NaPi buffer pH 7.0, 100 mM NaCl, was heated for two cycles in PCR cups in a PTC-200 thermal cycler (MJ Research, Inc., Waltham, Mass., USA). In each cycle, OVA was heated from 30 to 85° C. at a rate of 5° C./min. Native OVA (nOVA) and heat-denatured OVA (dOVA) were tested in the ThT fluorescence assay and in the Plg-activation assay. In the fluorescence assay and in the Plg-activation assay, 25 and 100 μg ml^−1 nOVA and dOVA were tested, respectively. TEM images of nOVA and dOVA were taken to check for the presence of large aggregates. […] MSA (#126674, Calbiochem) was dissolved in 8 M urea, 100 mM Tris-HCl pH 8.2, at 10 mg ml^−1 final concentration. Dithiothreitol (DTT) was added to a final concentration of 10 mM. Air was replaced by N2 and the solution was incubated for 2 h at room temperature. Then, the solution was transferred to ice and iodoacetamide was added from a 1 M stock to a final concentration of 20 mM. […] Alkyl-MSA was dialyzed against H2O before use. […] In the ThT-fluorescence assay 25 μg ml^−1 nMSA and alkyl-MSA were tested, and in the Plg-activation assay 100 μg ml^−1 was tested. The presence of aggregates or fibrils was analyzed using TEM. […]
Protein therapeutics were obtained from the local hospital pharmacy and analyzed within the expiry limits as stated by the manufacturers.

Data set [4] addresses T3, tPA (Homo sapiens, UniProt P00750).
T3 construct: purchased Boehringer-Ingelheim (Actilyse, Alteplase)
The data set is described as follows: Plasminogen-activation assay (tPA-mediated Plg to Pls, S-2251). It counts as biochemical. As to conditions: FIG. 6E, G. The procedure: as §1, §2
Purification of β2-glycoprotein I (β2GPI) was performed according to established methods^11,12. Recombinant human β2GPI was made using insect cells and purified as described^11. Plasma derived β2GPI as used in a factor XII ELISA, the chromogenic Plg-activation assay and in the anti-phospholipid syndrome antibody ELISA (see below), was purified from fresh human plasma as described^12.
To prepare structurally altered ovalbumin (OVA) with amyloid cross-β structure conformation, purified OVA (Sigma, A-7641, lot 071k7094) was heated to 85° C. One mg ml^−1 OVA in 67 mM NaPi buffer pH 7.0, 100 mM NaCl, was heated for two cycles in PCR cups in a PTC-200 thermal cycler (MJ Research, Inc., Waltham, Mass., USA). In each cycle, OVA was heated from 30 to 85° C. at a rate of 5° C./min. Native OVA (nOVA) and heat-denatured OVA (dOVA) were tested in the ThT fluorescence assay and in the Plg-activation assay. In the fluorescence assay and in the Plg-activation assay, 25 and 100 μg ml^−1 nOVA and dOVA were tested, respectively. TEM images of nOVA and dOVA were taken to check for the presence of large aggregates. […] MSA (#126674, Calbiochem) was dissolved in 8 M urea, 100 mM Tris-HCl pH 8.2, at 10 mg ml^−1 final concentration.

In data set [5] the target is T4, human fibronectin finger 4,5 (Fn F4,5) fragment (Homo sapiens, UniProt P02751).
T4 construct: human fibronectin finger 4,5 (Fn F4,5) fragment; made in house; host or cells: HEK293E cells, transient transfection, protein purified from the medium
The data set is described as follows: ELISA, binding of fibronectin F4,5 to coated (mis)folded proteins. To be noted: coated protein, FIG. 7D-H. The procedure:
(§3) The plates were blocked using Blocking reagent (Roche 1112589). A dilution series of the protein of interest was applied to the coated proteins and wells were subsequently washed using TBS-T (50 mM Tris pH 7.3, 150 mM NaCl and 0.1% Tween20). Bound protein is detected by the FLAG-tag using 1:3000 anti-FLAG-HRP (Sigma A-8592) in PBS-T, or by 1:1000 Ni-NTA-HRP (Qiagen 34530) in PBS-T. The HRP reaction Is performed using the TMB substrate (Biosource 4501103 or Tebu Bio 101TMB100-500), stopped using 10% H2SO4 and absorbance was measured at 450 nm.

In data set [6] the target is T5, human BiP (Homo sapiens, UniProt P11021).
T5 construct: made in house; host or cells: HEK293E cells, transient transfection, protein purified from the medium
The data set is described as follows: ELISA, binding of BiP to coated (mis)folded proteins. As to conditions: coated protein. The procedure:
as §3

Peptide text beside a SMILES is read from it.

T2 sequence (P02769 25-607): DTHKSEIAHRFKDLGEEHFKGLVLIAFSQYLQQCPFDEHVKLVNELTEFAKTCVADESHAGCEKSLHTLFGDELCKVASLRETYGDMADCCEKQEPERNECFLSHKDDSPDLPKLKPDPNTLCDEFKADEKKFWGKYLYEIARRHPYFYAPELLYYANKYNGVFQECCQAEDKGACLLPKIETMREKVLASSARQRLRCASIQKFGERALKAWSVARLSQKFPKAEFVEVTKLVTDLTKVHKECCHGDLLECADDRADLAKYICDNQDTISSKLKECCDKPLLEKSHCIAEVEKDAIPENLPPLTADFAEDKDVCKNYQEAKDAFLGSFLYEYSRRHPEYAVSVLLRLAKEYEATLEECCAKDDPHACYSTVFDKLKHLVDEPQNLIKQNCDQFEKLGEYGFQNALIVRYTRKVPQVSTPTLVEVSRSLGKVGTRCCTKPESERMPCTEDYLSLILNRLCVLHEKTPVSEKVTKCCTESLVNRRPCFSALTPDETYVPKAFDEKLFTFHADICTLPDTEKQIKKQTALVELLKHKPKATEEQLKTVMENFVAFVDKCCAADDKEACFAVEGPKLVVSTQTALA
T5 sequence (P11021 19-654): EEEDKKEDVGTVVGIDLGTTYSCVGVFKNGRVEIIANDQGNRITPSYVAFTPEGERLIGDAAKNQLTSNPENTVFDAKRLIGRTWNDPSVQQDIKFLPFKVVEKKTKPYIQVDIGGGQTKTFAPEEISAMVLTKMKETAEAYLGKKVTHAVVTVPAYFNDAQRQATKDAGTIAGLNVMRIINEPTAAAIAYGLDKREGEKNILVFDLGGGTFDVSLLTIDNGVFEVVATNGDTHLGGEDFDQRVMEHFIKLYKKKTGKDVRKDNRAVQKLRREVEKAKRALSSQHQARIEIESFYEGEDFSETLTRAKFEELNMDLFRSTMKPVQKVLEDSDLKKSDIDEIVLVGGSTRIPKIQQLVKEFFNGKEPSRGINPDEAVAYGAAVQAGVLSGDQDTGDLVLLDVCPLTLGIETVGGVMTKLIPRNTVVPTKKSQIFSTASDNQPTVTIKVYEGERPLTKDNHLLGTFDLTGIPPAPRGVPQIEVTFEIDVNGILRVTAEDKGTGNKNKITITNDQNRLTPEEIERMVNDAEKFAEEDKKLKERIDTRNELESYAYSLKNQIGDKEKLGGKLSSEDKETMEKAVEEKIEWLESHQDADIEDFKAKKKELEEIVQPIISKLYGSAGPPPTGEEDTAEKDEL
T3 sequence (P00750 36-562): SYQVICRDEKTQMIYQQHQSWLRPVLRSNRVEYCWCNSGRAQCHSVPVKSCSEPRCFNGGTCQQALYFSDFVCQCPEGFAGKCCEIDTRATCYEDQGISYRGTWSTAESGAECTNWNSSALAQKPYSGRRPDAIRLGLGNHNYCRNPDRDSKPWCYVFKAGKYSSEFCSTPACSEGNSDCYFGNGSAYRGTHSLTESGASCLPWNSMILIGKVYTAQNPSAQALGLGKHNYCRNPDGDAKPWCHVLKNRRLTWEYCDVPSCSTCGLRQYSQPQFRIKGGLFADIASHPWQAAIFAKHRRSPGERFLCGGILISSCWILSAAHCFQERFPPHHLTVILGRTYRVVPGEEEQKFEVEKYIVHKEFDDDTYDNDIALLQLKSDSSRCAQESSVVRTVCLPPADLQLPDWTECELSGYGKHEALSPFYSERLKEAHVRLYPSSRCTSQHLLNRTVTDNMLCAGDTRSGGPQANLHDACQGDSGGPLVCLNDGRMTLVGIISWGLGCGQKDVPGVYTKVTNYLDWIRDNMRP
T4 sequence (P02751 182-276 limits assumed): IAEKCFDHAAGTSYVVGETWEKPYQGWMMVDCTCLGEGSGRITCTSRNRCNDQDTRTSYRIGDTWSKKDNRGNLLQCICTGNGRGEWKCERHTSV

Consider `CC[C@H](C)[C@H](NC(=O)CNC(=O)[C@@H](NC(=O)[C@H](CC(=O)O)NC(=O)[C@@H](NC(=O)[C@H](CC(=O)O)NC(=O)[C@@H](NC(=O)[C@H](CCC(=O)O)NC(=O)[C@H](CC(C)C)NC(=O)[C@H](CCCNC(=N)N)NC(=O)[C@@H](N)CCCCN)C(C)C)[C@@H](C)CC)[C@@H](C)CC)C(=O)N[C@@H](CCCNC(=N)N)C(=O)N[C@@H](CO)C(=O)O` [FP13 K157G] (H-KRLEVDIDIGIRS-OH), for which, in data set [1], the “factor XII activation (kallikrein, Chromozym-PK conversion)” value is on record as “stimulate the activation of factor XII”.
For the molecule Thioflavin S [ThS], the “influence on binding of LRP cl-IV to BSA-AGE” value in data set [2] is given as “inhibit binding of LRP cl-IV to BSA-AGE to a large extent”.
Same read-out and setting: under `Cc1ccc2c(c1)sc(-c1ccc(N(C)C)cc1)[n+]2C` [ThT, Thioflavin T] stands “do not interfere”.
On to “heat-denatured glucagon: glucagon kept at 37° C. at low pH in HCl”, for which the “ThT fluorescence enhancement of native and denatured proteins” value in data set [3] was “enhanced ThT fluorescence to a large extent”. The “tPA activating potential of native and denatured glucagon and Etanercept” value in data set [4] is recorded as “potent activator of tPA”.
In the case of “reduced and alkylated lysozyme: reduced and alkylated lysozyme”, the “affinity of fibronectin F4,5 (detection anti-FLAG HRP)” value in data set [5] is “high affinity”.
In the case of `Nc1c(/N=N/c2ccc(-c3ccc(/N=N/c4cc(S(=O)(=O)O)c5ccccc5c4N)cc3)cc2)cc(S(=O)(=O)O)c2ccccc12` [Congo red], in data set [2], the “influence on binding of LRP cl-IV to BSA-AGE” value is on record as “inhibit binding of LRP cl-IV to BSA-AGE to a large extent”.
Turning to mIAPP: non-amyloid control peptide, the “factor XII activation (kallikrein, Chromozym-PK conversion)” value in data set [1] is reported as “do not activate factor XII”.
For “heat-denatured BSA: heat-denatured bovine serum albumin”, the “binding of BiP (detection anti-FLAG-HRP)” value in data set [6] is “not”.
